Key:
[1] = biological target: T1, Cyno DLL3-ECD (extracellular domain of cynomolgus macaque DLL3, residues 27 to 466, Avi-tag, 3C site, Fc knob … (cynomolgus macaque, UniProt A0A2K5WSR1 27-464, biotinylated at the Avi-tag (Example 11))); assay: SPR (ProteOn), biotinylated cyno DLL3-ECD on chip, DARPin conjugate as analyte, 1:1 Langmuir fit
T1 construct: range 27-466; also called cyno ECD; cynomolgus monkey DLL3; not shown: Avi-tag, 3C protease recognition site and Fc knob into hole
T1 sequence: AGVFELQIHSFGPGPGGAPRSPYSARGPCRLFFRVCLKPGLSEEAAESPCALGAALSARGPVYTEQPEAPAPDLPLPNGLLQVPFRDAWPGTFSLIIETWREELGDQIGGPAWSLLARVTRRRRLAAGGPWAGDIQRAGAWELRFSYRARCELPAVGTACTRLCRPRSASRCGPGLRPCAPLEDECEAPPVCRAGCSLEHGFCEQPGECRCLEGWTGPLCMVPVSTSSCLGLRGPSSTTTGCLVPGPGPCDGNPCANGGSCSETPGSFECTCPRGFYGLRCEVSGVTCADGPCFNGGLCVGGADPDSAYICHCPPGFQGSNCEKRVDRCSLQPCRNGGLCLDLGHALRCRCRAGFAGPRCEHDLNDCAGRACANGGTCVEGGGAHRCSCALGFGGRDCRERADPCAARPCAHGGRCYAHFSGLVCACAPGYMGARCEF
Protocol: (§1) The data were generated using BioRad ProteOn instrument in SPR running buffer (PBS, pH 7.4 containing 0.005% Tween 20©). […] The chip was coated with biotinylated target to reach a signal intensity of 1516 RU (human ECD), 257 RU (human NTD), 1500 RU (cyno ECD) and 228 RU (dog NTD). […] Each injection was followed by a regeneration step with 16 mM H₃PO₄ for 18 s. […] The obtained SPR traces were used to determine on-rate and off-rate interaction parameters.

[2] = biological target: T2, mouse serum albumin (mouse, UniProt P07724 25-608); assay: SPR (ProteOn), MSA on chip, DARPin conjugate as analyte, 1:1 Langmuir fit
T2 construct: also called MSA
T2 sequence (P07724 25-608 limits assumed): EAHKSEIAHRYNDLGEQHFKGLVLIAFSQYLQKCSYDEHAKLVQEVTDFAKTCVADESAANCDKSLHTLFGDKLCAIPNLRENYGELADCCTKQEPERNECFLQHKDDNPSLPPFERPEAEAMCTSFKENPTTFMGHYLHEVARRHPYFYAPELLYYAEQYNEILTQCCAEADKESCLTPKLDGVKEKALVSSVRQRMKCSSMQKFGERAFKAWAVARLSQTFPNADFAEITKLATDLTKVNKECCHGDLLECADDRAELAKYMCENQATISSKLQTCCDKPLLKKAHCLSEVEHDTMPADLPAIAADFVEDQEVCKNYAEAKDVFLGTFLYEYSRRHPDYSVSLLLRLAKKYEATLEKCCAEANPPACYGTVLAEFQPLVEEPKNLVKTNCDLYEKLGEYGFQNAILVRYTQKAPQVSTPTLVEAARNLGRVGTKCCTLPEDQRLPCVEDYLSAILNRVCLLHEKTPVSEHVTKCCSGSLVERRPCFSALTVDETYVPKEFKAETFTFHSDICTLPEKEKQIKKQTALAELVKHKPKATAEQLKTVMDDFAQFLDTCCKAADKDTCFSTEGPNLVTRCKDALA
Protocol: (§2) SPR multi-trace analyses were performed similarly as described in previous Examples.
(§3) All analytes (3-fold dilution ranging from 600-7.41 nM) were injected in succession for 240 s and dissociation was recorded for 600 s using a constant flow of 25 μl/min (HSA) or 100 μl/min (MSA) (25 μl/min).

[3] = biological target: T3, Human DLL3-NTD (truncated human DLL3, N-Terminal Domain, residues 27-189, C-terminal 6xHis and Avi-tag) (human, UniProt Q9NYJ7 27-189); assay: SPR (ProteOn), biotinylated human DLL3-NTD on chip, DARPin conjugate as analyte, 1:1 Langmuir fit
T3 construct: also called hDLL3-NTD; human NTD; not shown: C-terminal 6xHis and Avi-tag
T3 sequence: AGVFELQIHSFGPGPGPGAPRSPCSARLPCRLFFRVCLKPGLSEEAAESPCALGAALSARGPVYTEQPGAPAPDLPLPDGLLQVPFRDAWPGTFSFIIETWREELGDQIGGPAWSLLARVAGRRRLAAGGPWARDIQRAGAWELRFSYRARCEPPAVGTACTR
Protocol: as §1

[4] = biological target: T4, Human DLL3-ECD (recombinant extracellular domain of human DLL3, Examples 11, 17 and 19) (human, UniProt Q9NYJ7 27-466, biotinylated at the Avi-tag where immobilised (Examples 11 and 19)); assay: SPR (ProteOn), biotinylated human DLL3-ECD on chip, DARPin conjugate as analyte, 1:1 Langmuir fit
T4 construct: also called hDLL3-ECD; human ECD; not shown: Avi-tag and Fc knob into hole (order depends on the format)
T4 sequence: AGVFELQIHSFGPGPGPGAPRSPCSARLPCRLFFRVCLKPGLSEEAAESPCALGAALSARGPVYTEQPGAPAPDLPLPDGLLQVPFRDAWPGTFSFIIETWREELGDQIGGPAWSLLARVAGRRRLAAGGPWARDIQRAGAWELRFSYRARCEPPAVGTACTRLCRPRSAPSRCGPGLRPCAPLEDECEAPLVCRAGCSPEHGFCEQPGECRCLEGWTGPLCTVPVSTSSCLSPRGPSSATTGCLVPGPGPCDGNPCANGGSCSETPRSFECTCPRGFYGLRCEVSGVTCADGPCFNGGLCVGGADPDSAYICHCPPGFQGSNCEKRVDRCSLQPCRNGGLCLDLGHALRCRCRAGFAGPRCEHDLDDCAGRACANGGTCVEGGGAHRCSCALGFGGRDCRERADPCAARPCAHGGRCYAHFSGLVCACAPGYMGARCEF
Protocol: as §1

[5] = biological target: T5, human serum albumin (human, UniProt P02768 25-609); assay: SPR (ProteOn), HSA on chip, DARPin conjugate as analyte, 1:1 Langmuir fit
T5 construct: also called HSA
Protocol: as §2, §3

[6] = biological target: T6, Dog DLL3-NTD (truncated dog DLL3, N-Terminal Domain, residues 27-189, C-terminal 6xHis and Avi-tag) (dog, UniProt A0A8I3MXZ5 27-188, biotinylated at the Avi-tag); assay: SPR (ProteOn), biotinylated dog DLL3-NTD on chip, DARPin conjugate as analyte, 1:1 Langmuir fit
T6 construct: also called dog NTD; not shown: C-terminal 6xHis and Avi-tag
T6 sequence: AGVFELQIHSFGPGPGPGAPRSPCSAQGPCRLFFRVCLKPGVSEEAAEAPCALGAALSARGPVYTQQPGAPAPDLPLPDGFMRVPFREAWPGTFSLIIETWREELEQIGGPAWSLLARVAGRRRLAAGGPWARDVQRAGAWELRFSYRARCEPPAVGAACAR
Protocol: as §1

[7] = biological target: T4, Human DLL3-ECD (recombinant …); assay: SPR (ProteOn), biotinylated human DLL3-ECD on chip, DARPin conjugate as analyte, 1:1 Langmuir fit (same values as Table 14)
Protocol: as §1

B1: MAM279-DOTAM (GS-MAM279-tag, SEQ ID NO: 15, conjugated to the chelator DOTAM) (designed binder)
chain: GSDLGKKLLEAARAGQDDEVRELLKAGADVNAKDYFSHTPLHLAARNGHLKIVEVLLKAGADVNAKDFAGKTPLHLAADAGHLEIVEVLLKAGADVNAQDIFGKTPADIAADAGHEDIAEVLQKAAGSPTPTPTTPTPTPTTPTPTPTGSDLGKKLLAAAAQGQDDEVRELLKAGANVNAKDLFGYTPLHLAAWRGHLEIVEVLLKAGADVNAKDAAGETPLHLAAWFGHLEIVEVLLKAGADVNAQDLQGKTPADLAAKEGHEDIAEVLQKAAGSGSC
notes: also called DOTAM-conjugated MAM279; MAM279 conjugate
[1]
  Kd: 34.6 nM
  koff: 0.00125 s⁻¹
  kon: 36000 M⁻¹ s⁻¹
[2]
  Kd: 274 nM
  koff: 0.0425 s⁻¹
  kon: 155000 M⁻¹ s⁻¹
[3]
  Kd: 0.394 nM
  koff: 1.99e-05 s⁻¹
  kon: 50400 M⁻¹ s⁻¹
[4]
  Kd: 0.243 nM
  koff: 1.64e-05 s⁻¹
  kon: 67400 M⁻¹ s⁻¹
[5]
  Kd: 98.2 nM
  koff: 0.021 s⁻¹
  kon: 213000 M⁻¹ s⁻¹
[6]
  Kd: 1.46 nM
  koff: 4.86e-05 s⁻¹
  kon: 33400 M⁻¹ s⁻¹
[7]
  Kd: 0.243 nM
  koff: 1.64e-05 s⁻¹
  kon: 67400 M⁻¹ s⁻¹
